Here are results for 167 variants from the RNAGym collection of RNA variant scans (doi:10.7554/elife.90254).

Sequences and labels used below:
B1: LINE1-mini (parent)
chain: GGCAGAGCUCAACACAGCGUGGCAAAGUGGCUGUGGCUAGACUGCC

In the series the parent is B1. Description: self-cleavage, relative activity (ratio to wild type); higher = more cleavage; in vitro, sequencing; the parent is a self-cleaving ribozyme.
In the case of G17A A41C, the self-cleavage worked out at 0.04.

G17A A41G: the self-cleavage came to 0.07.

For the variant G17A A41U, the self-cleavage is 0.12.

Take A16C C23A: the self-cleavage is 0.12.

A16C C23U: the self-cleavage is 0.45.

Turning to A16C C23G, the self-cleavage worked out at 0.08.

With A16G C23U, the self-cleavage turned out to be 0.82.

Turning to A16G C23G, the self-cleavage came to 0.64.

A16G C23A: the self-cleavage amounted to 0.56.

Turning to A16G G22U, the self-cleavage came to 0.63.

As for A16G G22C, the self-cleavage came to 0.1.

With A16G G22A, the self-cleavage was 0.71.

Turning to A16C U34A, the self-cleavage was 0.04.

Regarding A16C U34C, the self-cleavage turned out to be 0.07.

Turning to A16C U34G, the self-cleavage was determined as 0.05.

For A16U G22C, the self-cleavage was 0.28.

As for A16U G22A, the self-cleavage amounted to 0.42.

As to A16U G22U, the self-cleavage was determined as 0.42.

As to A16C G40C, the self-cleavage was 0.03.

As to A16C G40A, the self-cleavage is 0.05.

Take A16C G40U: the self-cleavage was found to be 0.03.

As for A16U A26U, the self-cleavage came to 0.13.

A16U A26G: the self-cleavage was 0.06.

As to A16U A26C, the self-cleavage turned out to be 0.06.

Take A16C A26G: the self-cleavage amounted to 0.02.

For the variant A16C A26C, the self-cleavage was determined as 0.04.

With A16C A26U, the self-cleavage was 0.05.

For the variant A16G U43A, the self-cleavage was found to be 0.02.

For A16G U43G, the self-cleavage worked out at 0.08.

For A16G U43C, the self-cleavage came to 0.04.

Take A16G U34C: the self-cleavage amounted to 0.08.

In the case of A16G U34A, the self-cleavage was 0.02.

Regarding A16G U34G, the self-cleavage was found to be 0.08.

With A16G G21C, the self-cleavage was 0.34.

As to A16G G21A, the self-cleavage is 0.7.

Consider A16G G21U, for which the self-cleavage stood at 0.48.

Consider A16C G30A, for which the self-cleavage amounted to 0.14.

In the case of A16C G30C, the self-cleavage stood at 0.12.

As for A16C G30U, the self-cleavage stood at 0.05.

As to A16C G27C, the self-cleavage worked out at 0.15.

With A16C G27A, the self-cleavage worked out at 0.26.

Turning to A16C G27U, the self-cleavage was found to be 0.14.

For A16G G29U, the self-cleavage worked out at 0.77.

For the variant A16G G29C, the self-cleavage was 0.4.

For A16G G29A, the self-cleavage was found to be 1.23.

For C15U U38A, the self-cleavage was 0.64.

With C15U U38C, the self-cleavage turned out to be 0.27.

Regarding C15U U38G, the self-cleavage is 0.04.

For the variant A16U C31A, the self-cleavage turned out to be 0.21.

A16U C31G: the self-cleavage was 0.04.

As for A16U C31U, the self-cleavage was found to be 0.03.

As for A16G C42U, the self-cleavage was determined as 0.09.

For A16G C42G, the self-cleavage turned out to be 0.03.

Consider A16G C42A, for which the self-cleavage is 0.07.

For the variant A16C A24G, the self-cleavage amounted to 0.04.

On to A16C A24C, for which the self-cleavage came to 0.07.

Consider A16C A24U, for which the self-cleavage is 0.11.

Take A16G A41G: the self-cleavage worked out at 0.15.

On to A16G A41U, for which the self-cleavage was 0.16.

Take A16G A41C: the self-cleavage is 0.11.

Take A16U G21C: the self-cleavage is 0.27.

A16U G21A: the self-cleavage came to 0.23.

For the variant A16U G21U, the self-cleavage came out at 0.19.

For A16G G30U, the self-cleavage came to 0.31.

For the variant A16G G30A, the self-cleavage was 0.67.

On to A16G G30C, for which the self-cleavage is 1.19.

For the variant A16C G36C, the self-cleavage was found to be 0.04.

With A16C G36U, the self-cleavage was 0.07.

For A16C G36A, the self-cleavage came out at 0.12.

As for A16G U38A, the self-cleavage was 0.4.

As for A16G U38G, the self-cleavage is 0.01.

As to A16G U38C, the self-cleavage was 0.18.

On to A16U C42U, for which the self-cleavage stood at 0.09.

Turning to A16U C42G, the self-cleavage worked out at 0.07.

As for A16U C42A, the self-cleavage was found to be 0.05.

Take A16U C23U: the self-cleavage came to 0.23.

As for A16U C23A, the self-cleavage stood at 0.19.

Regarding A16U C23G, the self-cleavage is 0.1.

As for A16U C18U, the self-cleavage stood at 0.07.

For A16U C18G, the self-cleavage was determined as 0.05.

As to A16U C18A, the self-cleavage worked out at 0.05.

For A16G A24U, the self-cleavage turned out to be 0.62.

With A16G A24C, the self-cleavage is 0.13.

For A16G A24G, the self-cleavage is 0.16.

As for A16U A39U, the self-cleavage stood at 0.08.

On to A16U A39G, for which the self-cleavage turned out to be 0.07.

As for A16U A39C, the self-cleavage was 0.08.

Regarding A16C C37G, the self-cleavage is 0.02.

In the case of A16C C37A, the self-cleavage is 0.06.

A16C C37U: the self-cleavage came out at 0.1.

Consider G17A C18U, for which the self-cleavage was determined as 0.14.

As to G17A C18A, the self-cleavage came out at 0.09.

Regarding G17A C18G, the self-cleavage is 0.32.

As for A16C C46U, the self-cleavage stood at 0.08.

Take A16C C46G: the self-cleavage came out at 0.09.

In the case of A16C C46A, the self-cleavage was found to be 0.1.

In the case of G17A C31G, the self-cleavage came to 0.08.

On to G17A C31A, for which the self-cleavage is 0.13.

In the case of G17A C31U, the self-cleavage is 0.35.

Take A16G G40U: the self-cleavage came to 0.05.

In the case of A16G G40C, the self-cleavage was 0.07.

For A16G G40A, the self-cleavage came to 0.05.

With A16C A25C, the self-cleavage was 0.04.

As for A16C A25U, the self-cleavage stood at 0.08.

As to A16C A25G, the self-cleavage was determined as 0.07.

For the variant A16U C46A, the self-cleavage was 0.09.

As for A16U C46U, the self-cleavage amounted to 0.1.

As for A16U C46G, the self-cleavage amounted to 0.08.

As to C15U G44A, the self-cleavage was determined as 0.26.

Regarding C15U G44U, the self-cleavage was found to be 0.09.

On to C15U G44C, for which the self-cleavage is 0.31.

A16U G30U: the self-cleavage amounted to 0.06.

With A16U G30C, the self-cleavage stood at 0.45.

Take A16U G30A: the self-cleavage is 0.1.

In the case of A16G U28C, the self-cleavage stood at 0.44.

Regarding A16G U28A, the self-cleavage stood at 0.53.

On to A16G U28G, for which the self-cleavage was 0.36.

Take G17A: the self-cleavage was 0.19.

Turning to C15U G29C, the self-cleavage turned out to be 1.59.

For C15U G29U, the self-cleavage is 1.42.

Take A16C G22A: the self-cleavage worked out at 0.1.

In the case of A16C G22C, the self-cleavage turned out to be 0.09.

In the case of A16C G22U, the self-cleavage was 0.1.

On to A16U U32A, for which the self-cleavage stood at 0.55.

In the case of A16U U32C, the self-cleavage stood at 0.18.

For the variant A16U U32G, the self-cleavage came to 0.29.

Consider A16G G35A, for which the self-cleavage stood at 0.03.

A16G G35C: the self-cleavage worked out at 0.04.

Take A16G G35U: the self-cleavage was found to be 0.11.

Consider C15U G35U, for which the self-cleavage worked out at 0.13.

Regarding C15U G35A, the self-cleavage was determined as 0.09.

On to C15U G35C, for which the self-cleavage was 0.14.

Regarding A16G C18A, the self-cleavage worked out at 0.16.

Regarding A16G C18U, the self-cleavage was found to be 0.33.

For A16G C18G, the self-cleavage was 0.04.

On to A16C G29C, for which the self-cleavage worked out at 0.77.

For A16C G29U, the self-cleavage turned out to be 0.55.

Turning to A16C G29A, the self-cleavage was 0.57.

Turning to G17A A24U, the self-cleavage stood at 0.38.

Consider G17A A24C, for which the self-cleavage came out at 0.06.

As to G17A A24G, the self-cleavage is 0.18.

Turning to A16U A41C, the self-cleavage stood at 0.05.

Regarding A16U A41G, the self-cleavage was determined as 0.07.

For the variant A16U A41U, the self-cleavage was determined as 0.07.

Turning to C15U U43G, the self-cleavage came to 0.44.

C15U U43A: the self-cleavage turned out to be 0.14.

On to C15U U43C, for which the self-cleavage was 0.14.

Regarding A16G G33C, the self-cleavage was 0.05.

As to A16G G33A, the self-cleavage was 0.03.

In the case of A16G G33U, the self-cleavage is 0.04.

Consider A16C G17U, for which the self-cleavage came out at 0.08.

Regarding A16C G17A, the self-cleavage is 0.07.

For A16C G17C, the self-cleavage was 0.12.

Regarding A16U G27U, the self-cleavage came to 0.13.

In the case of A16U G27C, the self-cleavage came to 0.16.

On to A16U G27A, for which the self-cleavage stood at 0.59.

As for C15U G30U, the self-cleavage was found to be 0.6.

As for C15U G30C, the self-cleavage was 0.09.

C15U G30A: the self-cleavage was 0.35.

Consider A16C U28G, for which the self-cleavage was 0.07.

With A16C U28A, the self-cleavage was 0.18.

For the variant A16C U28C, the self-cleavage was determined as 0.03.

Turning to G17A A25G, the self-cleavage was 0.07.

Take G17A A25U: the self-cleavage was found to be 0.24.

G17A A25C: the self-cleavage was 0.07.

As for A16U, the self-cleavage is 0.15.

In the case of A16G, the self-cleavage is 0.61.
